We go through 1 molecule from patent US10058586B2, “Use of human small leucine zipper protein in adipocyte differentiation procedure” (Korea University Research and Business Foundation, priority 2013, dated 2018).

One assay addresses T1, PPARγ2 and HDAC3 (Homo sapiens, UniProt P37231).
T1 construct: expressed in transfected cells; host or cells: 293T cells
T1 sequence (P37231 1-505): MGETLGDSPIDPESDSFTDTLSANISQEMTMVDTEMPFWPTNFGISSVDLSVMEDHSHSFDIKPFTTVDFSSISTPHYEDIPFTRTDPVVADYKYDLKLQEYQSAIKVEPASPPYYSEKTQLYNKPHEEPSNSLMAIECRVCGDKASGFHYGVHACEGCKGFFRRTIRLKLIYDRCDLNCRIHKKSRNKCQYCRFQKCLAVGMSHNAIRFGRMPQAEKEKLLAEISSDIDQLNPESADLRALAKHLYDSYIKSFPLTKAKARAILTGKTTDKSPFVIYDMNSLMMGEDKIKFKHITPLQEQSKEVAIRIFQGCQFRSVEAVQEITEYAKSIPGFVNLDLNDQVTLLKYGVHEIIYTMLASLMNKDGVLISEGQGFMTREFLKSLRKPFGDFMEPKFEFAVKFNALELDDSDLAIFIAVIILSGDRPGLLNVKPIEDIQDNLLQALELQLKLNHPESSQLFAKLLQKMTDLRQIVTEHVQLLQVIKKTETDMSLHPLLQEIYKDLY
As to the kind of experiment: GST pull-down of GST-HDAC3, Myc-PPARγ2 and Flag-sLZIP in 293T cells. The format is binding. The conditions noted are these: in the presence of ligand (10 nM RZD). The method, then:
Therefore, in order to understand a regulation mechanism of sLZIP in the PPARγ2 transcriptional activity by binding to the FABP4 promoter region, an effect of sLZIP on the interaction between PPARγ2 and HDAC3 was examined. For this purpose, 293T cells were transfected with GST-HDAC3, Myc-PPARγ2 and Flag-sLZIP, and were treated or not treated with 10 nM of RZD for 24 hours. Cell lysates were subjected to GST pull-down analysis using a glutathione 4B bead, and a protein complex was analyzed in SDS-PAGE, and then immunoblotted with anti-GST, anti-Myc and anti-Flag antibodies (FIG. 6A). GST-HDAC3, GST-PPARγ2, Myc-PPARγ2, Flag-sLZIP and Ha-UB were expressed in the 293T cells, and the cells were treated with 10 nM of RZD for 24 hours. Cell lysates were subjected to GST pull-down analysis (FIG. 6B). GST-PPARγ2 and Flag-sLZIP were expressed in the 293T cells and treated with 10 nM of RZD for 24 hours. Cell lysates were subjected to GST pull-down analysis, and a protein complex was analyzed in SDS-PAGE, and then immunoblotted with anti-PGC1α, anti-GST and anti-Flag antibodies (FIG. 6C).

The target of another assay is T2, PPARγ2 (Homo sapiens, UniProt P37231).
T2 sequence (P37231 1-505): T1 sequence (P37231 1-505)
Briefly: FABP4 promoter luciferase analysis in preadipocytes from epididymal adipose tissues of sLZIP TG mice. The assay is classed as cell-based, mouse. Details: expressed in transfected cells; host or cells: primary preadipocytes from epididymal adipose tissue of human-sLZIP transgenic mice. The conditions noted are these: adipocytes of sLZIP TG mice vs wild type mice, with or without 10 nM RZD. The text has this: In order to generate human sLZIP transgenic (TG) mice, sLZIP genes were cloned into a pCMV-flag expression vector. The sLZIP TG mice were generated by Macrogen, Inc (Seoul, Korea). Transgenic founders were mated with wild type C57BL/6 mice to produce F1 heterozygotes. F1-F4 generations were genetically screened for transgenes at an age of 2 weeks old. The following two primers were used to amplify genomic DNA in order to identify wild type and TG mice: [NT] and 5'-[NT]3.' Adipocyte differentiation is a well-regulated procedure. PPARγ2 is a major regulator of adipogenesis, is highly expressed during adipocyte differentiation, and regulates expression of genes involved in adipogenesis. An effect of sLZIP on adipogenesis in vivo was examined. For this purpose, in order to produce human sLZIP transgenic mice, sLZIP genes were cloned in a pCMV-flag expression vector. The sLZIP TG mice were produced in Macrogen, Inc (Seoul, Korea) (FIG. 8A). Preadipocytes were isolated from epididymal adipose tissues of sLZIP TG mice. […] A promoter activity was measured according to luciferase analysis (FIG. 8B). […] Total RNA was extracted from the cells, and an mRNA expression level of mouse LZIPs was measured using RT-PCR analysis. […] Total RNA was isolated from the cells, and an mRNA expression level of mouse LZIPs was measured using RT-PCR (FIG. 9C) and real-time PCR (FIG. 9D).

B1: sLZIP: human small leucine-zipper protein, isoform of LZIP, 354 amino acids, no transmembrane domain; GenBank FJ263669, SEQ ID NO: 1 (protein, listed as Homo sapiens)
chain: MELELDAGDQDLLAFLLEESGDLGTAPDEAVRAPLDWALPLSEVPSDWEVDDLLCSLLSPPASLNILSSSNPCLVHHDHTYSLPRETVSMDLESESCRKEGTQMTPQHMEELAEQEIARLVLTDEEKSLLEKEGLILPETLPLTKTEEQILKRVRRKIRNKRSAQESRRKKKVYVGGLESRVLKYTAQNMELQNKVQLLEEQNLSLLDQLRKLQAMVIEISNKTSSSSMYSSDTRGSLPAEHGVLSRQLRALPSEDPYQLELPALQSEVPKDSTHQWLDGSDCVLQAPGNTSCLLHYMPQAPSAEPPLEWPFPDLFSEPLCRGPILPLQANLTRKGGWLPTGSPSVILQDRYSG
Regarding B1, the “effect on interaction between PPARγ2 and HDAC3 (GST pull-down)” value in the assay with PPARγ2 and HDAC3 is “enhanced interaction between PPARγ2 and HDAC3”. Further, the “transcriptional activity of PPARγ2 (luciferase)” value in the assay with PPARγ2 was “decreased in the adipocytes of the sLZIP TG mice more than in wild type mice”.
